Assay results published in patent US20260234242A1 (HAINAN SIMCERE ZAIMING PHARMACEUTICAL, published 2026).

T1: his-tagged human CDH6 extracellular region protein (hCDH6 ECD-his) (human, UniProt P55285 19-615)
T1 construct: also called Human CDH6-his; hCDH6-his; not shown: his tag
T1 sequence: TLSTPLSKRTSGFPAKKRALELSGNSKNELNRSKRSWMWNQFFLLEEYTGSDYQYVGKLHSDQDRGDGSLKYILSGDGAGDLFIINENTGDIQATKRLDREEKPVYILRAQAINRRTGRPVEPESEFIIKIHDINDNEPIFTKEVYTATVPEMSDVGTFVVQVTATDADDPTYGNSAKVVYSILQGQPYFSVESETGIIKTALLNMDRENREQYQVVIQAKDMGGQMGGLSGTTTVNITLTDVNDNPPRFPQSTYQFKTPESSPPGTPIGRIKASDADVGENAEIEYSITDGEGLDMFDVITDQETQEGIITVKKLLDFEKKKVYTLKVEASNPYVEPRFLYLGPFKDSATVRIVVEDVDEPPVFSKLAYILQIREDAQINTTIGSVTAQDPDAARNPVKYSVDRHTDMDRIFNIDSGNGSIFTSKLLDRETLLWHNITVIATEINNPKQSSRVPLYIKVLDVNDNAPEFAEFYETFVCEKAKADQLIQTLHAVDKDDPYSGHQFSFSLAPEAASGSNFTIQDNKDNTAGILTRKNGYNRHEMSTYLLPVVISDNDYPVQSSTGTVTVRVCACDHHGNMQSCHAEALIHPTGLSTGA

T2: human CDH6 with EC5 removed, on HEK293T cells (HEK293T-hCDH6-EC5 deletion) (human, UniProt P55285 54-790)
T2 construct: Signal peptide not removed here
T2 sequence: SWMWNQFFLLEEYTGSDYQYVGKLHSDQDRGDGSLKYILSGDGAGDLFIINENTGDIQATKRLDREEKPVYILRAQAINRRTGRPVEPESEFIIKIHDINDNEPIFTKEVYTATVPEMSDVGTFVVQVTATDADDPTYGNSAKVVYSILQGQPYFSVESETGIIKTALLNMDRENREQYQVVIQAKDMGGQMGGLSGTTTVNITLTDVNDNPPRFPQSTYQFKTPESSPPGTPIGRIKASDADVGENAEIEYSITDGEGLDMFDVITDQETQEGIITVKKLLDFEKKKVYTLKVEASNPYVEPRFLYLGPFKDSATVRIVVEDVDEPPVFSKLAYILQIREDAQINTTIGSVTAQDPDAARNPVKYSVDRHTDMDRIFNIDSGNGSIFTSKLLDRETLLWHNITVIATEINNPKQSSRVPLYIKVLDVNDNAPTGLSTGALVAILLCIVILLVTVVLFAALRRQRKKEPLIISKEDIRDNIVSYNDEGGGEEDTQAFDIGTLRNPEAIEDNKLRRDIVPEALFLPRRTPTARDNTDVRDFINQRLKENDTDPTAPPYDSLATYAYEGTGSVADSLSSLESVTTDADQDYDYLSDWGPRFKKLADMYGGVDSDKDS


Assays:
[1] = target: T1, his-tagged human CDH6 extracellular …; experiment: ELISA, coated antigen
Method: (§1) Human CDH6 protein (hCDH6 ECD-his, conventionally synthesized), monkey CDH6 protein (cynoCDH6 ECD-his, conventionally synthesized; the cynoCDH6 ECD sequence was derived from Uniprot #A0A2K5TW62 (19-615)), and murine CDH6 protein (mCDH6 ECD-his, conventionally synthesized; the mCDH6 ECD sequence was derived from Uniprot #P97326 (19-615)) were diluted with PBS to a final concentration of 1 μg/mL, and added to a 96-well ELISA plate at 100 μL/well. The plate was incubated at 4° C. overnight. The next day, the plate was washed 3 times with a plate washing solution (PBS+0.01% (v/v) Tween 20), and a blocking buffer (PBS+0.01% (v/v) Tween 20+2% (w/w) BSA) was added for blocking at room temperature for 2 h. The blocking buffer was discarded, and the plate was washed 3 times. The chimeric antibodies were diluted with 1% BSA+PBS (purchased from Cytiva, Cat. No. SH30264.01) and added to the 96-well plate at 50 μL/well. After incubation at 37° C. for 2 h, the plate was washed 3 times with a plate washing solution. […] The plate was incubated at 37° C. for 1 h and then washed 5 times with a plate washing solution. A TMB substrate (purchased from Seracare, Cat. No. 5120-0077) was added at 50 μL/well and incubated at room temperature for 10 min, then a stop solution (1.0 N HCl) was added at 50 μL/well. OD450 nm values were read using a microplate reader (Biotek). Analysis was performed by the GraphPad Prism software, data were fitted, and EC50 values were calculated. The chimeric antibodies tested all had strong binding to the human CDH6 protein, the monkey CDH6 protein, and the murine CDH6 protein.

[2] = target: T2, human CDH6 with EC5 removed, on HEK293T …; experiment: FACS, HEK293T-hCDH6-EC5 deletion cells
Text: To confirm the binding epitope of the CDH6 antibody, the sequences after removal of these 5 regions were constructed into pcDNA3.1 vectors (purchased from Youbio, Cat. No. VT1001), and transfected into HEK293T cells (purchased from Cell Bank of Chinese Academy of Sciences, Cat. No. SCSP-502) to obtain 5 CDH6 truncated cell lines: HEK293T-hCDH6-EC1 deletion, HEK293T-hCDH6-EC2 deletion, HEK293T-hCDH6-EC3 deletion, HEK293T-hCDH6-EC4 deletion, and HEK293T-hCDH6-EC5 deletion.
The binding activity of the CDH6 chimeric antibodies to these 5 cell lines was assayed by FACS.

[3] = target: T1, his-tagged human CDH6 extracellular …; experiment: ELISA, coated antigen; ELISA, coated hCDH6 ECD-his; plateau signal
Method: as §1

| Binder | EC50 [1] [nM] | Max OD450 [1] [OD450] | Max MFI [2] [MFI] | Max OD450 [3] [OD450] | binding result [2] |
| --- | --- | --- | --- | --- | --- |
| CHI-CDH6-2 (antibody, human IgG1, kappa, V domains shown, also called chimeric antibody of murine CDH6-2) VH: EVQLQQSGPELVKPGASVRISCKASGYTFTDYYMNWVKQSHGKSLEWIGDIDPNNANTTYNQKFKGKATLTVDKSSSTAYMELRSLTSEDSAVYSCASFGYDVEWFGYWGQGTLVTVSA VL: QIVLTQSPALMSASPGEKVTMTCSASSSVSYMYWYQQKPRSSPKPWIYLTSNLASGVPARFSGSGSGTSYSLTISSMEAEDAATYYCQQWSSNPFTFGSGTKLEIKR | 0.027 | 2.07 | – | – | – |
| CHI-CDH6-3 (antibody, human IgG1, kappa, V domains shown, also called CH1-CDH6-3; chimeric antibody of murine CDH6-3) VH: QVQLQQPGAELVKPGASVKLSCKASGYTFTSYWIHWVKQRPGQGLEWIGEINPSNGVTNCNENFKSKATLTVDKSSSTAYMQLSSLTSEDSAVYYCTIPNLLWWYFDVWGAGTTVTVSS VL: DIQMTQSPASLSVSVGETVTITCRASENIYSNLAWYQQKQGKSPQLLVYEATNLADGVPSRFSGSGSGTQYSLKINSLQSEDFGSYYCQHFWGTLWTFGGGTKLEIKR | – | – | 5610 | 2.56 | – |
| CHI-CDH6-4 (antibody, human IgG1, kappa, V domains shown, also called CH1-CDH6-4; chimeric antibody of murine CDH6-4) VH: QVQLQQSGPELVKPGASVKISCKASGYAFSNFWMNWVKQRPGKGLEWIGWIYPGDGDTNYNGKFKDKATLTADKSSSTAYIQLSSLTSEDSAVYFCARLYDAWGFFDYWGQGTTLTVSS VL: QIVLTQSPAIMSASPGQKVTITCSASSSVNYMHWYQQKLGSSPKLWIYDKSKLAPGVPARFSGSGSGTSYSLTISSMEAEDAASYFCHQWSSYPPMTFGGGTKLEIKR | – | – | 6540 | 2.14 | – |
| CHI-CDH6-6 (antibody, human IgG1, kappa, V domains shown, also called CHI-hCDH6-6; chimeric antibody of murine CDH6-6) VH: EVQLQQSGPELVKPGDSVKMSCKASGYTFTDYYMAWVRQSHRKSLEWIGYIFPNSGGTDYSQKFKGKATLTVDKSSSTVYMELHSLTSEDSAVYYCARELGADYGDYYAMDHWGQGTSVSVSS VL: DIQMTQSPASLSASVGETVTITCRASENIDSYLAWYQQKQGKSPQLLVYSATLLADGVPSRFSGSGSGTQYSLKINSLKSEDVARYYCQHYYRTPPTFGSGTKLEIKR | 0.034 | 2.18 | – | – | – |
| CHI-CDH6-9 (antibody, human IgG1, kappa, V domains shown, also called chimeric antibody of murine CDH6-9) VH: QVQLQQPGAELVKPGASVKLSCKASGYTFTGYWMHWVRQRPGQGLEWIGEINPNNGGTNCNEQFKNKATLTVDKSSSTAYMQLSSLTSEDSAVFYCTISFGNYLFFDVWGAGTTVTVSS VL: DIQMTQSPASLAASVGETITITCQASENIYFSLAWYQQKQGKSPQLLIYNANTLEDGVPSRFVGSGSGTQYSMKINSIQPEDTATYFCDQTYDFPWTFGGGTKLEIKR | 0.016 | 2.58 | – | – | – |
| CHI-CDH6-10 (antibody, human IgG1, kappa, V domains shown, also called chimeric antibody of murine CDH6-10) VH: QVQLQQPGAELVKPGTSVKMSCKASGYTFTSDWIAWVKQRPGQGLEWIGDIYPGSGRTHNNEKFNFKATLTVDTSSNTAYMQLSSLTSEDSAVYFCARPMLGRFDYWGQGTTLTVSS VL: DIVLTQSPASLAVSLGQRATISCRASESVSIHGTHLMHWYQQKPGQPPKLLIYAASNLESGVPARFSGSGSETDFTLNIHPVEEEDAATYFCQQSFEDPFTFGSGTKLEIKR | 0.025 | 2.03 | – | – | – |
| CHI-CDH6-13 (antibody, human IgG1, kappa, V domains shown, also called chimeric antibody of murine CDH6-13) VH: DVQLQESGPGLVKPSQSLSLTCSVTGYSITKDSYWNWIRQFPGSKLEWMGFISYDGSRHYNPSLKNRISITRDTSKNQFFLQLNSVTTEDTATYYCARRDYADYWGQGTTLTVSS VL: QIVLTQSPALMSAFPGEKVTMTCSATSSVSYIYWYQQKPRSSPKPWIYLTSNLASGVPARFSGSGSGTSYSLTINSLEAEDAATYYCQQWSSIPYTFGGGTKLEIKR | 0.009 | 2.62 | – | – | – |
| CHI-CDH6-14 (antibody, human IgG1, kappa, V domains shown, also called CHI-hCDH6-14; CH1-CDH6-14) VH: QIQLQQSGPELVKPGTSVKISCKASGYTFTDNYINWVRQRPGQGLEWIGWIYPGTGNSYYNEKFKGKATLTVDTSSSTAYMQFSSLTSEDSAVYLCASSYGDSFDYWGQGTTLTVSS VL: DIQMTQTTSSLSASLGNRVTISCRASQDIRNYLNWYQQKPDGTFKLLISYTSRLHSGVPSRFSGSGSGTDYSLTVSNLEPEDIATYYCQQYSQLPWTFGGGSRLEIKR | – | – | 4040 | – | – |

Now from value to binder, other results behind:

| EC50 [1] [nM] | Max OD450 [1] [OD450] | Max MFI [2] [MFI] | Max OD450 [3] [OD450] | Binder | binding result [2] |
| --- | --- | --- | --- | --- | --- |
| 0.04 | 2.23 | 14300 | – | CHI-CDH6-1 (antibody, human IgG1, kappa, V domains shown, also called CHI-hCDH6-1; CH1-CDH6-1) VH: QVQLQQPGAELVRPGSSVKLSCKASGYTFTNYWMHWVKQRPIEGLEWIGDIDPSHSETHYTQKFKDKATLTVDKSSSTAYMQLSSLTSEDSAVYYCARGDLGRFDYWGQGTTLTVSS VL: DIVLTQSPASLAVSLGQRATISCRASESVSIHGTHLMHWYQQKSGQPPKLLIYAASNLESGVPARFSGSGSETDFTFNIHPVEEEDAATYFCQQSFEDPWTFGGGTKLEIKR | – |
| – | – | 4240 | 1.79 | CHI-CDH6-5 (antibody, human IgG1, kappa, V domains shown, also called CH1-CDH6-5; chimeric antibody of murine CDH6-5) VH: QVQLQQSGAELVRPGTSVKMSCKAAEYTFTNYWIGWVKQRPGHGLEWIGDLYPGGDHANYNEKFEGKATLTADTSSSTAYMQLSSLTSEDSAIYYCARGMLTTGFDSWGQGTTLTVSS VL: DIVMSQSPSSLAVSAGEKVTMSCKSSQSLFNSRTRKNYLAWYQQKPGQSPKLLIYWASTRESGVPDRFTGSGSGTDFTLTISSVQAEDLAVYYCKQSYYLRTFGGGTKLEIKR | – |
| 0.033 | 2.31 | – | – | CHI-CDH6-8 (antibody, human IgG1, kappa, V domains shown, also called chimeric antibody of murine CDH6-8) VH: EVQLQQSGPELVKPGDSVKMSCKASGYTFTDYYMAWIKQNHGKSLEWIGYIYPNNGGTDYNQKFRGKATLTVDKSSSAAYMELHSLTSEDSAVYYCAREIGTLYGDYYAMDYWGQGTSVTVSS VL: DIQMTQSPASLSASVGETVTITCRASENIDSYLAWYQQKQGKSPQLLVYTATLLADGVPSRFSGSGSGTQYSLKINSLQSEDVARYYCQHYYSTPPTFGSGTKLEIKR | – |
| 0.034 | 2.24 | – | – | CHI-CDH6-11 (antibody, human IgG1, kappa, V domains shown, also called chimeric antibody of murine CDH6-11) VH: QIQLQQSGPELVKPGASVRISCKASGYTFTDYYITWVKLRPGQGLEWIGWIYPGSVNIKYNEKFKGKATLTVDTSSSTAYMQLNSLTSEDSAVYFCARGGYSWFPYWGQGTLVTVSA VL: NIVMTQSPKSMSMSVGERVTLSCKASENVHTYVSWYQQKPEQSPKLLFYGASTRNTGVPDRFTGSGSATDFTLTISSVQAEDLADYYCGQSYSYPYTFGSGTKLEIKR | – |
| 0.043 | 2.32 | – | – | NOV0712 (antibody, human IgG1, kappa, V domains shown, Positive control, variable regions from WO2018212136A1; also called positive control anti-human CDH6 antibody) VH: QVQLLESGGGLVQPGGSLRLSCAASGFTFSSHGMHWVRQAPGKGLEWVSVISGSGSNTGYADSVKGRFTISRDNSKNTLYLQMNSLRAEDTAVYYCARQWGSYAFDSWGQGTLVTVSS VL: DIQMTQSPSSLSASVGDRVTITCRASQSISSYLNWYQQKPGKAPKLLIYAVSTLQSGVPSRFSGSGSGTDFTLTISSLQPEDFATYYCQQSGTFPPTTFGQGTKVEIKR | no binding (tested: MFI ~1.5 times that of hIgG1 (81)) |
